Experimental findings from publication PMC2911377 are described below.

The target of this assay is amino terminal enhancer of Split (AES), HA tagged (human) (UniProt Q08117).
Chain of UniProt Q08117 (Q08117 whole entry): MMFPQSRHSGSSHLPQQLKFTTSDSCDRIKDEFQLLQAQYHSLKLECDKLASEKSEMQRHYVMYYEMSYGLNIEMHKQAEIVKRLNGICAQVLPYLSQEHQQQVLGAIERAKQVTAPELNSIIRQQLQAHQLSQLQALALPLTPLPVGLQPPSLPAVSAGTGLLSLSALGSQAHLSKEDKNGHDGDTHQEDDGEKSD

As to “GFP-LRP6-ICD-myc-NLS (wild type LRP6-ICD with a nuclear localization signal) (domain or fragment)”, the repression of AES mediated TOP (TOPflash, TCF/LEF-1 luciferase reporter) transcription in HEK 293T cells co-transfected with AES-HA and GFP-LRP6-ICD-NLS, 24 hrs came out at 138%.
